Common to all, as to conditions: label: Alexa680 at 5' and 3'
One data set concerns the target T1, hPUF_MT(R3→R5, R4→R6).
T1 chain: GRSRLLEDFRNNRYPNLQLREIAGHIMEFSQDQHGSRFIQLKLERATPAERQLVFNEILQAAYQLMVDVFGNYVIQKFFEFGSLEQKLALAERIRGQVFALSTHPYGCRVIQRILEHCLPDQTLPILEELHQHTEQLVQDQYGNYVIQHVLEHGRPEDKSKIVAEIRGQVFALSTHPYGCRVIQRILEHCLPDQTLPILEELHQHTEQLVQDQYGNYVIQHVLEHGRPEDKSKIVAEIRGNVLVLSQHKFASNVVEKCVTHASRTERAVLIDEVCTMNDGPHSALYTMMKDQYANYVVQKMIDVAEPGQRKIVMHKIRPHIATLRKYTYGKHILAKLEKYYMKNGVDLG
Briefly: EMSA; binds U exclusively at R8 position.

Data set [1] deals with T2, hPUF_MT(R8_N12S,Q16R, R3→R5, R4→R6) (R8 repeat N12S,Q16R).
T2 chain: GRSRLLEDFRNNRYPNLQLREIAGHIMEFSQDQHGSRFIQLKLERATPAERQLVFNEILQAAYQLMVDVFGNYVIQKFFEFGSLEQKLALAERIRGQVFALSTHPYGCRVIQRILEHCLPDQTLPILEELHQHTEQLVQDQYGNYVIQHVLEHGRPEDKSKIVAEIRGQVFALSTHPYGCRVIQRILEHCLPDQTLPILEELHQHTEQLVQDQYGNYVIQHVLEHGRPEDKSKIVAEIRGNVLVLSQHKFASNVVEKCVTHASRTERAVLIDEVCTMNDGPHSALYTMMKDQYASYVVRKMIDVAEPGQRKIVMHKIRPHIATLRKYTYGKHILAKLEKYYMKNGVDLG
Briefly: EMSA; C>>G. For orientation: In EMSA bound probe runs differently from free probe, usually more slowly.

Data set [2] has as its target T3, hPUF_MT(1-2-5-6-5-6-5-6-7-8) / (R5:A_13R)3(R6:U_13Y)3.
T3 chain: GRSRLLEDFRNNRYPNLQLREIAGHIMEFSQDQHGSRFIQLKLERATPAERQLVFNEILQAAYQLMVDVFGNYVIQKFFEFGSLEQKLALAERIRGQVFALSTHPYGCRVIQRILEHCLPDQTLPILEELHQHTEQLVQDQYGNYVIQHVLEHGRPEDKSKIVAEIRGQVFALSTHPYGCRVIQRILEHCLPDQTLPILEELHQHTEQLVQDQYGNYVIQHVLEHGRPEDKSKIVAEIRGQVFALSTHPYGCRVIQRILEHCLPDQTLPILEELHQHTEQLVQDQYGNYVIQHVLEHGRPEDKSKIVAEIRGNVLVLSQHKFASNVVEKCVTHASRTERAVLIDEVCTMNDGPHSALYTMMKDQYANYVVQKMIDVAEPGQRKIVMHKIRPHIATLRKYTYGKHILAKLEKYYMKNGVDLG
The experiment in a line: EMSA; Example 2-5 reported comparable to WT.

The target in data set [3] is T4, hPUF_MT(R5:A_13R)(R5:A_13Y)2(R6:U_13Y)3.
T4 chain: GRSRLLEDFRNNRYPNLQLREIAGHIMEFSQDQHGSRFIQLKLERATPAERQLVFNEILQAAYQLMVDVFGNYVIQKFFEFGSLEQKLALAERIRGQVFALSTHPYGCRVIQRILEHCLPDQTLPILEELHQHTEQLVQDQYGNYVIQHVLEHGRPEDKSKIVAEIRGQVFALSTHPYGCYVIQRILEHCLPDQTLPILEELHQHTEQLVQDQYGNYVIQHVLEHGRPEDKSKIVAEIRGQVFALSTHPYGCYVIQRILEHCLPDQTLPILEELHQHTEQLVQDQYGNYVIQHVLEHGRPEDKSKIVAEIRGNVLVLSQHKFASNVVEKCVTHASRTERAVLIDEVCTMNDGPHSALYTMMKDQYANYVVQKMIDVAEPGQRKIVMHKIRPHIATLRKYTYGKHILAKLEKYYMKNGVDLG
Briefly: EMSA; equivalent.

In the case of CCAGAAUCGUAUAUAUUCG (ssRNA) [OTS-2035], the binding result with hPUF_MT(R3→R5, R4→R6) is listed as “no binding”; in data set [1], “binds”.
Take CCAGAAUUGUAUAUAUAUUCG (ssRNA) [OTS-1844]: the binding signal in data set [2] is ~10 fold of WT; in data set [3] it was ~1 fold of 13R protein.
